Data on one molecule can be found in patent US12533420B2 (NBE-Therapeutics AG, priority 2018, dated 2026).

Common to all, as to format: biochemical
The subject of assay [1] is FITC-labelled LPXTGE, DNPNTGDE, ENPXTNAGT, KLPXTASN and ALAXTGSE peptides. In words: Sortase activity assay, gel-based, FITC-labelled peptide substrates. The settings on record: conjugation to 60 kDa Gly6 protein, 25° C., 6 to 24 hours, FITC emission. On the procedure: The reaction was performed at 25° C. for 6 to 24 hours, and stopped by addition of reducing SDS-PAGE loading buffer, followed by 5 min. incubation at 95° C. Reaction products were loaded on a 12% SDS-PAGE gel and run according to standard protocols. Labelled reaction products were visualized by FITC emission using the FLA-9000 Imager from Fujifilm, and quantified using ImageJ software.

Assay [2] relates to FITC-labelled LPQTGE peptide and GGGK-biotin. In words: Optimization of sortase conjugation reaction conditions, HPLC-based assay. The settings on record: initial rate (samples up to 3 hours), RP-HPLC, pH 8.5, NaCl, 25° C.
Method: The reaction was performed at 25° C. over a period of 24 hours (with 6 samplings in the period up to 3 hours), independently varying the following parameters: • pH over a range of 4 to 11 (using a mixture of boric and citric acid, along with phosphate buffer to achieved the desired pH), while the concentration of NaCl at 500 mM; • NaCl concentration over a range of 0 to 3 M, while maintaining the pH at 8.5 (using 50 mM of sodium phosphate to establish the desired pH).
The reaction was stopped by adding 95 μL of 0.05 M HCl per 5 μL of reaction mixture. Reaction products were loaded into XBridge C18 HPLC columns equilibrated in 0.1% NH4OH in 5% methanol. Elution was performed with a linear gradient from 0 to 100% of 0.1% NH4OH in 95% methanol over 10 mL at flow rate of 0.5 mL/min and a temperature of 30° C. Eluted peptides were detected by absorbance at 497 nm and fluorescence at 522 nm (excitation at 497 nm) and peak areas were quantified.
Assay [3] concerns self-quenching peptide Dabcyl-QALPQTGET-Edans and triglycine. The assay can be described thus: Optimization of sortase conjugation reaction conditions, fluorescence assay. Particulars: initial rate, temperature varied 15 to 45° C., pH 8.5, 500 mM NaCl. On the procedure:
Reactions were performed over a period of 1 hour, varying the reaction temperature between 15 and 45° C. and measuring fluorescence over time (using a plate reader or fluorescence spectrometer, with excitation at 350 nm and emission at 495 nm).
Initial rate of sortase F-mediated ligation at different temperatures was evaluated based on regression of the fluorescence over time.

B1: sortase F: recombinant sortase F enzyme from P. acnes KPA171202, with N-terminal MS peptide and C-terminal TwinStrep-comprising tag (protein)
chain: TTTSSTSGIPAASAAKKGPVPAGCMKTPKPIVPVKYSIDGMKASAKVLSRGVDETGAAGAPPKNDPSSMAWFNQGPKIGSDKGNAVLTAHTYHKGGALGNRLYDKNNGIKKGDIIRLTDKTGQTVCYRYDHDTKVMVKDYNPNSNILYDNNGPAQAAIVICWDYVKKTGEFDSRVIFYTYPVA
modifications: Propionibacterium acnes
Take B1: in assay [1], the “substrate peptide on which the enzyme is active” value is on record as “principally active on the LPXTGE”. In assay [2], the “salt concentration optimum for initial sortase F activity rate” value is “above 250 mM”. In assay [3], the “temperature above which the reaction rate decreased” value was “above 40 °C” and the “temperature optimum of sortase F activity rate” value was “about 25 °C”.
